Experiment [1] deals with T1, human LAG-3 on activated Hu CD4+ T cells.
T1 construct: differs from m5, which is LAG-3 transduced into 3A9 cells; also called native human LAG-3
T1 chain: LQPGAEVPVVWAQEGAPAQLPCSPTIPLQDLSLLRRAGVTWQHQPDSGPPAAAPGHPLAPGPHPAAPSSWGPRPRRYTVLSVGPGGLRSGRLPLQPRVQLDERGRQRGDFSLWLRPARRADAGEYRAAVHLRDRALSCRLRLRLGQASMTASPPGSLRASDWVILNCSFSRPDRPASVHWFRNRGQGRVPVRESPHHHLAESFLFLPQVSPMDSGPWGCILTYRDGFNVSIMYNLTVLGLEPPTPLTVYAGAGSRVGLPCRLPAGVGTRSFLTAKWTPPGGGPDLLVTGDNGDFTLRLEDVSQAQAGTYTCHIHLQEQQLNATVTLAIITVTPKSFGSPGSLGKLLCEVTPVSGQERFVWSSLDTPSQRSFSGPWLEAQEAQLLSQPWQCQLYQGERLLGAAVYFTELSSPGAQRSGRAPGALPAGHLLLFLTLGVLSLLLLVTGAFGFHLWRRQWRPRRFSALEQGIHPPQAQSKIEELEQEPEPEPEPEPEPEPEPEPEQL
The experiment in a line: flow cytometry on anti-CD3/anti-CD28-activated human CD4+ T cells (native LAG-3), PE anti-human Fc detection, FL2 GMFI. As for the experimental part:
(§1) To test the ability of the antibody variants to bind to native human LAG-3 on the surface of activated human T cells, normal healthy donor peripheral blood mononuclear cells were stimulated in 15 cm tissue culture plates at a density of 2×10e6 cells/mL, with a combination of anti-CD3 (eBioscience, Cat #16-0037-85) and anti-CD28 (BD Bioscience, Cat #555725) antibodies present in solution at 5 μg/mL and 3 μg/mL, respectively. Following three days of stimulation cells were harvested, washed 1× with 1×PFAE buffer (1×PBS+2% FBS, 0.02% sodium azide, 2 mM Na EDTA), and resuspended in 1×PFAE buffer for staining.
(§2) For the binding reaction, 100 μl of this diluted antibody mixture was added to 2×10⁵ cells and the mixture was incubated on at 4° C. for 30 minutes. The cells were then washed two times with 1×PFAE buffer. A 1:200 dilution of PE-labeled goat anti-human Fcγ-specific antibody (Jackson ImmunoResearch, Cat. #109-116-170) was added and the mixture was incubated for 30 minutes at 4° C., followed by washing twice with cold 1×PFAE buffer. After the final wash, 150 μl of cold 1×PFAE was added to each solution and analysis of antibody binding was carried out by flow cytometry using a FACSCanto flow cytometer (BD Bioscience).
A general note: A flow cytometer gives signals particle by particle.

Experiment [2] has as its target T2, soluble human LAG-3/Fc antigen (human, UniProt P18627 23-450).
T2 construct: also called huLAG-3-Fc; not shown: Fc part of the fusion
T2 sequence: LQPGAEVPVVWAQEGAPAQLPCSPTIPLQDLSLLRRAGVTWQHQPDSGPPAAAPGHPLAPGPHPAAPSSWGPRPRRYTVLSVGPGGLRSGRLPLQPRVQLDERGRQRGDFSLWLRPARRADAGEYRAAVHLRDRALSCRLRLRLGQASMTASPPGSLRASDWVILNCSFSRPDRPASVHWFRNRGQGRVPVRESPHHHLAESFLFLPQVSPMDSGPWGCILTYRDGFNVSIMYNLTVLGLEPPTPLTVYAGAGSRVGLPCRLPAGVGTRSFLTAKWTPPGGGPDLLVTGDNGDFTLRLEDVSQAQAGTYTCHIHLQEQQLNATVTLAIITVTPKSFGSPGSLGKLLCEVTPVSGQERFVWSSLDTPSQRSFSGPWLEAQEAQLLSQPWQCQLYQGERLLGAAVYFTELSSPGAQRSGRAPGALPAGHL
The experiment in a line: BIACORE (surface plasmon resonance) with soluble human LAG-3/Fc antigen. In general terms: In SPR one partner is held on a chip, and binding of the other changes the refractive index at the surface.

Experiment [3] addresses T1, human LAG-3 on activated Hu CD4+ T cells. The experiment in a line: flow cytometry on activated human CD4+ T cells (donor WB1907), FL2 GMFI; forced stability study, sample not marked pH 8. As for the experimental part: as §1, §2
The target is the same in experiment [4]. The experiment in a line: flow cytometry on activated human CD4+ T cells (donor WB1907), FL2 GMFI; antibody after 5 days at 40 °C in pH 8.0 ammonium bicarbonate. As for the experimental part: as §1, §2
The target of experiment [5] is T2, soluble human LAG-3/Fc antigen. The experiment in a line: Biacore (SPR); antibody after accelerated stress at pH 8 (5 days, 40 C).
Experiment [6] has the same target. The experiment in a line: Biacore (SPR); antibody kept in PBS.

Substitutions are numbered along the chain they refer to. Names and notes keep the numbering of the source.

B1: LAG3.6-G4P (antibody, V domains shown)
VH: QVQLQQWGAGLLKPSETLSLTCAVYGGSFSDYYWNWIRQPPGKGLEWIGEIIHSGSTNSNPSLKSRVTLSLDTSKNQFSLKLRSVTAADTAVYYCAFGYSDYEYNWFDPWGQGTLVTVSS
VL: EIVLTQSPATLSLSPGERATLSCRASQSISSYLAWYQQKPGQAPRLLIYDASNRATGIPARFSGSGSGTDFTLTISSLEPEDFAVYYCQQRSNWPLTFGQGTNLEIKR
notes: also called var2; copies: 2 + 2
By EC50 is commonly meant the concentration needed to bring the measured effect to its halfway point. The term Kd denotes the free concentration of one partner at which half of the binding sites on the other are occupied at equilibrium, for simple one-to-one binding. A low value points to tighter binding. The koff is a measure of how fast the partners let go of each other. Lower therefore signals slow dissociation. One may read the kon as a measure of how fast the partners come together. Low readings indicate slow association, high ones fast association. For the molecule B1, the half-maximal effective concentration (EC50) in experiment [1] turned out to be 0.21 nM. In experiment [2], this molecule yielded a Kd of 0.66 nM, a koff of 0.000777 s⁻¹ and an on-rate (kon) of 1.18e+06 M⁻¹ s⁻¹.

B2: LAG3.8 antibody variant of LAG3.1 (25F7) (antibody, V domains shown)
VH: B1 VH with I52N, S54I, S56N
VL: B1 VL
notes: It was made by site-directed mutagenesis of the LAG3.1 VH
Turning to B2, the concentration giving a half-maximal response (EC50) in experiment [3] worked out at 0.24 nM. Also, the EC50 in experiment [4] turned out to be 0.21 nM. In experiment [5], this molecule gave a Kd of 0.25 nM, a koff of 0.000402 s⁻¹ and a kon of 1.62e+06 M⁻¹ s⁻¹. For the same molecule, in experiment [6], the Kd was 0.25 nM, the koff worked out at 0.000368 s⁻¹ and the kon is 1.47e+06 M⁻¹ s⁻¹.

B3: antibody 25F7 (LAG3.1), anti-human LAG-3 human monoclonal antibody (antibody, human IgG4 S228P, kappa, V domains shown)
VH: B1 VH with I52N, S54N, S56N
VL: B1 VL
notes: The heavy chain is human IgG4 with S228P; also called antibody LAG3.1
As to B3, the concentration giving a half-maximal response (EC50) was 0.13 nM in experiment [1] and 0.2 nM in experiment [4]. In addition, the Kd in experiment [2] was determined as 0.27 nM; in experiment [5] it was 0.2 nM; in experiment [6], 0.21 nM.

B4: LAG3.7-G4P (antibody, V domains shown)
VH: B1 VH with I52N, S54G, S56G
VL: B1 VL
notes: also called var3; copies: 2 + 2
As usually defined, the EC50 (read off the curve) is the concentration at which the effect is half-maximal. As to B4, in experiment [1], the concentration for a half-maximal effect (EC50 (read off the curve)) was roughly 0.3 nM. Further, the kon in experiment [2] is 1.04e+06 M⁻¹ s⁻¹.
